According to patent US20050043228A1:

Tests used:
[1] = molecular target: protamine (from protamine sulfate); test: Val^8-GLP-1 in the supernatant versus total, after mixing with protamine, 25 C, 24 h
poly-L-arginine = test: Val^8-GLP-1 in the supernatant versus total, after mixing with poly-L-arginine, 25 C, 24 h
[2] = molecular target: protamine (from protamine sulfate); test: share of Val^8-GLP-1 in particles (supernatant versus total); 2.0 mg Val^8-GLP-1 + 0.22 mg protamine, ratio 9.1
[3] = molecular target: protamine (from protamine sulfate); test: share of Val^8-GLP-1 in particles (supernatant versus total); 2.0 mg Val^8-GLP-1 + 0.27 mg protamine, ratio 7.4
[4] = molecular target: protamine (from protamine sulfate); test: share of Val^8-GLP-1 in particles (supernatant versus total); 2.0 mg Val^8-GLP-1 + 0.33 mg protamine, ratio 6.1
[5] = molecular target: protamine (from protamine sulfate); test: share of Val^8-GLP-1 in particles (supernatant versus total); 2.0 mg Val^8-GLP-1 + 0.38 mg protamine, ratio 5.3
[6] = molecular target: protamine (from protamine sulfate); test: share of Val^8-GLP-1 in particles (supernatant versus total); 2.0 mg Val^8-GLP-1 + 0.44 mg protamine, ratio 4.5
[7] = molecular target: protamine (from protamine sulfate); test: share of Val^8-GLP-1 in particles (supernatant versus total); 2.0 mg Val^8-GLP-1 + 0.49 mg protamine, ratio 4.1
[8] = molecular target: protamine (from protamine sulfate); test: share of Val^8-GLP-1 in particles (supernatant versus total); 2.0 mg Val^8-GLP-1 + 0.55 mg protamine, ratio 3.6
[9] = molecular target: protamine (from protamine sulfate); test: share of Val^8-GLP-1 in particles (supernatant versus total); 2.0 mg Val^8-GLP-1 + 0.16 mg protamine, ratio 12.5

Binder: HVEGTFTSDVSSYLEGQAAKEFIAWLVKGRG [Val^8-GLP-1(7-37)OH]
- yield (share of Val^8-GLP-1 in the particles) [1]: 90 to 95%
- yield (share of Val^8-GLP-1 in the particles) (poly-L-arginine): 90%
- Yield % [2]: 73.2%
- Yield % [3]: 84.3%
- Yield % [4]: 94.5%
- Yield % [5]: 98.3%
- Yield % [6]: 99.5%
- Yield % [7]: 99.7%
- Yield % [8]: 99.4%
- Yield % [9]: 54.6%
